In article PMC9158119 (2022) one finds koff data, which are given here for one molecule.

The target in this assay is SARS-CoV-2 original strain spike receptor-binding domain (S-RBD) (SARS-CoV-2, UniProt P0DTC2 320-537). As to the kind of experiment: SPR.

B1: Nb-007 (VHH)
VHH: QLQLVESGGGLVQAGGSMRLSCAASISFSSFPMGWHRQAPGKQRELVAKTGIGGTAYDDSVKGRFTISRDNTKNTVYLQMNSLKVEDTAVYYCWGWRMNDYWGQGTQVTVSS
B1 displayed a koff of 0.00103 s⁻¹.
